# Measured values reported in article PMC5384801 (mAbs, 2016).
# B1: 8C chimeric mAb (bovine V regions, human IgG1/lambda constant regions) (antibody, V domains shown)
# VH: QVQLRESGPSLVKPSQTLSLTCTVSGFSLSRYDVNWVRQAPGKALEWVGVISGDGITGYNPALKSRLSITKDNSKSQLSLSVSSVTPEDTATYYCESWVCVGGRDDVCHSDWGQGLLVTVSS
# VL: QAVLTQPTSVSVALGQTAKITCSGDLVDEQYTQWYQQKPGQGPVMVIYKDSERPSGISDRFSGSNSGKTATLTISGAQTEDEADYYCHSADSSHAVFGSGTTLTV
# Biological target: trimeric HIV-1 YU-2 gp140 Env (HIV-1 YU-2 (clade B), UniProt P35961, strain)
# Assay: ELISA
binder,measurement,value
B1,binding result,no binding
